T1: human VISTA on the surface of cells (human, UniProt Q9H7M9 33-295)
T1 sequence: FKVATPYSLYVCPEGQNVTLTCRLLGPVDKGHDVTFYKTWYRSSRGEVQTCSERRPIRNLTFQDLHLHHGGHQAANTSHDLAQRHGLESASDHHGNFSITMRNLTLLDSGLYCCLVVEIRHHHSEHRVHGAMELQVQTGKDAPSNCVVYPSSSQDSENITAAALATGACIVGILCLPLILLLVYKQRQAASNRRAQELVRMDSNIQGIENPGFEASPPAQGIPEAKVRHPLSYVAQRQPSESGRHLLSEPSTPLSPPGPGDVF


Biological target: T1, human VISTA on the surface of cells
Assay: cell-based or functional assay

Binder	IC50, CPM (proliferation), SEB assay	IC50, Gamma (IFN-g), SEB assay
VSTB50 (antibody, human IgG1, V domains shown) VH: QVQLVQSGSELKKPGASVKVSCKASGYTFTNYGLNWVRQAPGQGLEWMGWINPYTGEPTYADDFKGRFVFSLDTSVSTAYLQICSLKAEDTAVYYCAREGYGNYIFPYWGQGTLVTVSS VL: DIVMTQTPLSLSVTPGQPASISCRASESVDTYANSLMHWYLQKPGQPPQLLIYRASNLESGVPDRFSGSGSGTDFTLKISRVEAEDVGVYYCQQTNEDPRTFGQGTKLEIK	-0.74 log10 of antibody concentration	1.69 log10 of antibody concentration
VSTB53 (antibody, human IgG1, V domains shown) VH: QVQLVQSGAEVKKPGASVKVSCKASGYTFTHYTIHWVRQAPGQGLEWMGYIIPSSGYSEYNQKFKDRVTMTRDTSTSTVYMELSSLRSEDTAVYYCARGAYDDYYDYYAMDYWGQGTLVTVSS VL: DIVMTQSPLSLPVTPGEPASISCRSSQTIVHSNGNTYLEWYLQKPGQSPQLLIYKVSNRFSGVPDRFSGSGSGTDFTLKISRVEAEDVGVYYCFQASHVPWTFGQGTKLEIK	-1.06 log10 of antibody concentration	-1.05 log10 of antibody concentration
VSTB116 (antibody, V domains shown) VH: QVQLVQSGAEVKKPGSSVKVSCKASGGTFSSYAISWVRQAPGQGLEWMGGIIPIFGTANYAQKFQGRVTITADESTSTAYMELSSLRSEDTAVYYCARSSYGWSYEFDYWGQGTLVTVSS VL: DIQMTQSPSSLSASVGDRVTITCRASQSINTNLNWYQQKPGKAPKLLIYAASSLQSGVPSRFSGSGSGTDFTLTISSLQPEDFATYYCQQARDTPITFGQGTKVEIKR	-1.44 log10 of antibody concentration	-0.35 log10 of antibody concentration
VSTB95 (antibody, human IgG1, V domains shown) VH: EVQLVESGGGLVQPGGSLRLSCAASGFTFRNYGMSWVRQAPGKGLEWVASIISGGSYTYYPDSVKGRFTISRDNAKNSLYLQMNSLRAEDTAVYYCARIYDHDGDYYAMDYWGQGTTVTVSS VL: DIVMTQSPLSLPVTPGEPASISCRSSQSIVHSNGNTYLEWYLQKPGQSPQLLIYKVSNRFSGVPDRFSGSGSGTDFTLKISRVEAEDVGVYYCFQGSHVPWTFGQGTKLEIK	-1.12 log10 of antibody concentration	0.05 log10 of antibody concentration
